Measured values taken from patent US20180126009A1 (SURGIMAB S A S, published 2018).

What was measured:
carcinoembryonic antigen [1] = biological target: T1, carcinoembryonic antigen (UniProt P06731 35-685, limits assumed); experiment: SPR, BIACORE 3000, CEA thiol-coupled to CM5 chip, antibody in flow at 50 nM to 1.5 nM; chimeric antibody of Example 1, unlabelled
T1 construct: Antigen preparation used in the SPR assay; also called CEA
T1 sequence (looked up): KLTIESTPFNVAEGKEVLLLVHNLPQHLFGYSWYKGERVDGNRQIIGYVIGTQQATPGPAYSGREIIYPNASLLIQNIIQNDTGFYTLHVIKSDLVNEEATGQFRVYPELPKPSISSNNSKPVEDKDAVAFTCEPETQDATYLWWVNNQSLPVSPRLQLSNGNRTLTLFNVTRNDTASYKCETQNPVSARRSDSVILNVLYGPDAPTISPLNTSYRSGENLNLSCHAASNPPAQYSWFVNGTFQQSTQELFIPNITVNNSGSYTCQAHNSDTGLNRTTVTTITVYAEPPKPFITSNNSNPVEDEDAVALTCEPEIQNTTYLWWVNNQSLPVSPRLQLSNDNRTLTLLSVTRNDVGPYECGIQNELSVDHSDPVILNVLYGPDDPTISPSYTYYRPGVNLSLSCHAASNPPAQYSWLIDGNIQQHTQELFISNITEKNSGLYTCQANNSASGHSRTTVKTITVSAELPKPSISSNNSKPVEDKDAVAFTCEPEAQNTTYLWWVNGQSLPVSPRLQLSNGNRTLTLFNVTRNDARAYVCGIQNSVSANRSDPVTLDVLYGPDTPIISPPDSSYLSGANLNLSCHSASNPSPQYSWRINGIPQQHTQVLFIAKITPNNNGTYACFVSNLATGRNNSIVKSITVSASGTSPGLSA
Description: (§1) The affinity of the fluorescent conjugate as prepared in Example 3 to the target carcinoembryonic antigen was also determined, using surface plasmon resonance (SPR) on a BIACORE 3000 device. Carcinoembryonic antigen was coupled to a CM5 chip via the thiol groups (Surface Thiol Coupling GE healthcare; Instruction 22-0618-10AB). Association and dissociation rates were measured using in the flow 6 different concentrations (from 50 nM to 1.5 nM) of the chimeric monoclonal antibody of Example 1, the monoclonal antibody m511 (the original murine antibody from which the variable regions the chimeric monoclonal antibody of Ex. 1 is based) and fluorescent conjugate. Data acquisition and parameters calculations were performed using the Bia software and Bia evaluation programs.

carcinoembryonic antigen [2] = biological target: T1, carcinoembryonic antigen; experiment: SPR, BIACORE 3000, CEA thiol-coupled to CM5 chip, antibody in flow at 50 nM to 1.5 nM; parental murine antibody m511
Description: as §1

carcinoembryonic antigen [3] = biological target: T1, carcinoembryonic antigen; experiment: SPR, BIACORE 3000, CEA thiol-coupled to CM5 chip, conjugate in flow at 50 nM to 1.5 nM; chimeric antibody labelled with the near-infrared dye (conjugate of Ex. 3)
Description: as §1

B1: anti-CEA chimeric monoclonal antibody of Example 1 (antibody, human IgG1, V domains shown)
VH: DVQLVESGGGLVQPGGSRKLSCAASGFTFSNFGMHWIRQAPEKGLEWVAYISGGSSTIYFADTLKGRFTISRDNPKNTLFLQMTSLRSEDTAIYYCARDYYINNYWYFDVWGAGTTVTVSS
VL: DIVMTQSQKFMSTSVGDRVSITCKASQNVRSAVAWYQQTPGQSPKALIYLASNRYTGVPDRFTGSGSGTDFTLTISNVQSEDLADYFCLQHWNYPLTFGGGTKLELK
notes: Expressed in CHO cells; 148.6 kDa by MALDI-TOF; also called chimeric mAb directed against CEA; anti-CEA chimeric mAb
Kd (carcinoembryonic antigen [1]): 0.0327 nM

B2: monoclonal antibody m511 (antibody, V domains shown)
VH: B1 VH
VL: B1 VL
notes: Murine parental antibody; also called parental murine 511 antibody; original murine antibody
Kd (carcinoembryonic antigen [2]): 0.0382 nM

B3: fluorescent conjugate of Example 3 (anti-CEA chimeric mAb of Example 1 coupled to the fluorochrome of Formula (IV)) (antibody, V domains shown)
VH: B1 VH
VL: B1 VL
modifications: cyanine fluorochrome (NHS ester of Formula (IV), giving moiety F of formula (II)) coupled to the antibody; average fluorochrome/antibody molar ratio 1.5-1.6; sites of coupling not stated
notes: In the tissue cross-reactivity study the conjugate was also biotin labelled; also called conjugate of Ex. 3
Kd (carcinoembryonic antigen [3]): 0.0321 nM
